Laboratory results as given in publication PMC7215387, “Comparison of Target Recognition by TRAF1 and TRAF2” (International Journal of Molecular Sciences, 2020).

Assays:
TRAF1 = biological target: T1, TRAF1 (Homo sapiens, UniProt Q13077); test: Complex formation assay by gel-filtration (size-exclusion) chromatography with TRAF1; format: binding; details: Superdex 200 10/30, 20 mM Tris pH 8.0, 150 mM NaCl; 1 h at 4 °C; peak shift approximately 16 mL
T1 construct: the TRAF1 TRAF domain (amino acid residues 220-416); 6xHis (C); made in house; host or cells: E. coli BL21 (DE3)
T1 sequence (Q13077 220-416): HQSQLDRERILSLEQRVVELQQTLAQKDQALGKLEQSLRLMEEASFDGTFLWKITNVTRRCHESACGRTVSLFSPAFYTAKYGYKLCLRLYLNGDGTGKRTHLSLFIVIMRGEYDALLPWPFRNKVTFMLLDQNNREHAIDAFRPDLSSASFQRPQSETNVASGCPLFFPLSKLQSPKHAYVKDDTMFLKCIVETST
Excerpt: (§1) TRADD is a well-known regulator of the TRAF function. The death domain located at the C-terminus of TRADD interacts with death-domain containing receptors and adaptor proteins including TNFR, receptor interacting protein 1 (RIP1) and Fas-associated death domain protein (FADD), while the N-terminal domain of TRADD (TRADD-N) interacts with the TRAF domain of TRAF2 (Figure 2a). Although several indirect interactions between TRAF1 and TRADD have been described, a direct interaction and direct analyses between TRAF1 and TRADD have not been reported. To directly study their interactions and binding properties, which may provide important clues for understanding TRAF-mediated signaling by TRADD, TRAFs and TRADD-N were purified, and initial interaction testing was performed by Native-PAGE. […] Although TRAF1 did interact with TRADD-N, this interaction was not as tight as with TRAF2 (Figure 2b). To further confirm this association, the interaction between the TRAFs and TRADD-N was further tested by size-exclusion chromatography. […]
Purified TRAF domains and TRADD-N proteins were mixed, incubated at 4 °C for 1 h, and concentrated to 4 to 5 mg/mL using a protein concentration kit (Millipore). […] Complex assembly was evaluated based on the positions of eluted protein peaks monitored at 280 nm followed by SDS-PAGE.

TRAF2 = biological target: T2, TRAF2 (Homo sapiens, UniProt Q12933); test: Native-PAGE complex formation with TRAF2; format: binding; details: 8% to 25% acrylamide gradient gels, Coomassie; 1 h at 4 °C; TRAF2 TRAF domain (305-501)
T2 construct: TRAF2 TRAF domain (amino acid residues 305-501); 6xHis (C); made in house; host or cells: E. coli BL21 (DE3)
T2 sequence (Q12933 305-501): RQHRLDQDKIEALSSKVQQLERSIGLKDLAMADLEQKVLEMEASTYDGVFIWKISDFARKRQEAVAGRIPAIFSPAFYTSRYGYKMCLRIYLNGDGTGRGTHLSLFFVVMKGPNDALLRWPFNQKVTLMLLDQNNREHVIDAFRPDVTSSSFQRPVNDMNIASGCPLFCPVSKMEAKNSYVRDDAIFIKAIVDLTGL
Excerpt: as §1
The formation of complexes was assayed by native (non-denaturing) PAGE conducted on a PhastSystem (GE Healthcare) with pre-cast 8% to 25% acrylamide gradient gels (GE Healthcare). […] Complex formation was evaluated based on the appearance of newly formed bands or the disappearance of bands that were detected in single control protein bands.

B1: TRADD-N: N-terminal domain of TRADD (TRADD-N, amino acid residues 1-163) (protein)
chain: MAAGQNGHEEWVGSAYLFVESSLDKVVLSDAYAHPQQKVAVYRALQAALAESGGSPDVLQMLKIHRSDPQLIVQLRFCGRQPCGRFLRAYREGALRAALQRSLAAALAQHSVPLQLELRAGAERLDALLADEERCLSCILAQQPDRLRDEELAELEDALRNLK
modifications: left off: His6 (from the vector pET24a), C-terminal, state not stated
co-migration with TRAF1 in size-exclusion chromatography / SDS-PAGE (TRAF1): TRADD-N did not perfectly co-migrate with TRAF1 | Native-PAGE band change on incubation with TRAF2 (TRAF2): the TRADD-N band was completely absent, forming a new complex band
